Experimental data: US20120083423

Molecular target: autoantibodies to BRAF purified from the sera of RA patients

B1: BRAF (protein)
chain: LQKSPGPQRERKSSSSSEDRNRMKTLGRRDSSDDWEIPDGQITVGQRIGSGSFGTVYKGKWHGDVAVKMLNVTAPTPQQLQAFKNEVGVLRKTRHVNILLFMGYSTKPQLAIVTQWCEGSSLYHHLHIIETKFEMIKLIDIARQTAQGMDYLHAKSIIHRDLKSNNIFLHEDLTVKIGDFGLATVKSRWSGSHQFEQLSGSILWMAPEVIRMQDKNPYSFQSDVYAFGIVLYELMTGQLPYSNINNRDQIIFMVGRGYLSPDLSKVRSNCPKAMKRLMAECLKKKRDERPLFPQILASIELLARSLPKIHRSASEPSLNRAGFQTEDFSLYACASPKTPIQAGGYGAFPVH
- phosphorylation of MEK1 by BRAF: 80% of anti-BRAF autoantibodies activate phosphorylation of MEK1 by BRAF in vitro
